According to the supplement of paper PMC10567573:

B1: WSB1 (parent)
chain: DLKDDGNMMKVLRGHQNWVYSCAF
B2: GAGE1 (parent)
chain: RPRRYVQPPEMIGPMRPEQFSDEV

Variants of: B1
Test: protein stability index of a GFP-peptide fusion (GPS, HEK-293T) (PSI 1-6); higher = more stable
Details: c terminus: a fixed tail appended
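Note: lentivirally expressed fusions sorted by FACS into six bins by GFP to DsRed ratio, PSI derived from sequencing read proportions per bin multiplied by bin number.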

Protein stability index of substitutions, site by site:
F24: N 2.18, L 3.07, S 2.89, A 2.14, C 1.47, I 2.28, E 1.82, V 2.97, D 3.3, H 3.34, Y 2.38, P 2.95, Q 2.21, M 2.27, R 2.33, G 2.19, W 4.14, K 2.34, T 1.98
C22: P 2.01, N 1.81, K 1.77, T 1.9, S 1.61, Q 2.15, M 2.61, H 1.33, E 2.39, Y 1.72, L 3.06, G 1.69, I 2.86, F 2.98, D 3.46, A 2.25, R 2.33
Y20: R 2.05, H 2.06, P 1.84, G 1.97, A 2.28, D 1.69, M 1.61, L 2.57, W 2.28, E 1.6, V 3.3, S 1.83, K 1.39, Q 1.68, C 3.17, F 1.66, T 2.63
A23: V 1.71, K 1.31, E 2.24, M 1.44, N 2.22, Y 2.29, I 1.43, L 1.22, S 2.94, P 2.5, H 1.75, F 2.17, G 1.73, C 2.5, T 1.6, R 2.36
S21: R 1.22, T 1.07, K 1.07, P 2.05, Y 3.37, G 2.27, D 2.05, N 1.46, H 2.05, A 2.3, E 1.94
V19: W 2.28, M 2.52, C 2.73, S 1.04, R 2.86, T 1.71, I 2.13, Y 2.87, K 1.75, A 2.53, D 2.15, H 2.12, Q 2.07, P 2.03, L 2.22, F 1.34, N 1.44, G 2.66
W18: T 2.08, M 2.75, S 2.7, V 1.07, Q 2.73, P 1.86, K 1.46, Y 2.09, R 1.65, L 2.88, N 2.24

Variants of: B2
Test: as above
Details: c terminus: a fixed tail appended

Protein stability index, by site and new letter:
E23: I 2.92, Y 2.76, D 3.77, C 3.58, Q 3.63, M 2.85
P8: M 3.48, D 4.31, A 3.71, E 4.54, I 3.27, R 3.93, W 3.09, S 4.36
V6: I 3.94, H 3.69, D 4.34, P 4.06, M 3.59, S 4.17, Q 3.59, W 3.18, K 3.83
M15: F 3.89, A 4.21, L 3.95, K 4.48, S 4.84, Y 4, P 4.31, C 4.31, E 4.78, D 4.75, T 4.72
P9: A 3.75, S 4.29, F 3.79, D 4.61, V 2.61, K 4.13, C 4.24
M11: T 3.74, K 4.15, S 3.54, L 3.4, Y 3.82
E18: M 3.45, L 3.52, Y 3.51, W 3.16
P14: T 4.44, N 4.2, W 3.58, G 3.97, I 4.13, A 4.38, F 3.54, E 4.41
D22: P 3.95, K 3.88, T 3.76, E 3.83, I 1.97, M 3.06, V 2.9, N 3.23, G 3.62, F 2.16
R3: I 4.23, Y 3.1, G 3.96, A 3.74, P 4.04, E 4.51, Q 4.11, H 3.83, L 2.88, C 3.1, V 4.03
F20: Q 4.84, I 4.31, T 4.62, N 4.8, K 4.92, E 4.97, A 4.98, H 4.04, S 4.42, W 3.94
R4: W 3.09, E 3.92, Q 4.66, K 3.69, T 3.98, V 3.89, M 4.07, G 4.12, H 3.43, D 4.46, C 3.64, A 3.94, I 3.43
P2: M 3.24, Y 2.21, V 3.5, F 2.81, K 3.24, W 2.14, T 3.33, C 2.99, S 3.92, H 3.61
I12: W 3.84, L 4.12, G 4.69, R 4.35, H 4.3, C 4.33, S 4.36, A 4.42, Y 3.91, M 4.39, P 4.31
P17: H 3.92, G 4.55, R 3.96, Q 4.15, A 3.8, M 3.88, Y 3.36, S 4.39, L 3.97, W 3.66, K 4.14, I 3.72
R16: I 4.44, S 3.87, C 3.84, V 4.16, G 4.17, L 3.5
R1: A 3.63, M 3.98, H 3.94, G 3.85, D 4.33, T 4.01
V24: G 3.58, D 4.09, S 4.21, H 4.46, W 4.01, M 3.74, Q 4.18, E 4.17, C 3.35, I 3.51, N 4.2
G13: P 4.68, I 3.25, A 4.21, V 4.05, Q 4.54, D 4.63, L 3.71, C 3.96, K 3.72, M 4.14, H 4.07
Q19: R 3.71, Y 3.92, K 3.98, L 3.63, W 3.12, G 4.28, P 4.11, I 3.78, D 3.69, S 3.82, M 3.58, F 3.62, V 3.78, C 4.16
E10: G 4.16, A 4.15, I 3.69, M 4, S 4.08, H 4.32, Y 3.18, C 3.13, T 4.33, K 4.48
S21: K 4, D 3.98, C 4.15, I 2.9, M 3.44, P 3.99, W 3.01, Q 3.79, R 4.11, E 3.73, H 3.55, F 2.97
Y5: K 4.43, G 4.49, A 4.38, F 3.78, I 3.31, L 3.31, M 3.47, V 4.41, R 3.91, N 4.17, S 4, T 4.45
Q7: V 3.57, A 3.77, M 3.52, K 4.02, F 3.87, Y 3.73, P 3.96, S 4.24
